Several values for one entry are separate records, joined by “and”; a condition that tells them apart may be missing. Identical values can stand only once.
Legend:
p-preDC from cultured BM = assay: Culture of BMC with FL for 10 days, expansion of p-preDC; assay type: cell-based, mice; settings: 10 days in culture with FL, n=4
Description: (§1) Culture of BMC with FL. BMC were resuspended at 10^6 cells/ml in culture medium consisting of RPMI 1640 (Gibco), 10% FBS (Gibco), 1 mM Sodium pyruvate (Gibco), 10 mM Hepes (Gibco), 2 mM L-Glutamine (Gibco), Penicillin 100 U/mL, 100 μg/mL Streptomycin, (Gibco), and 10^−5 M 2-mercaptoethanol (Sigma), supplemented with human FL (100 ng/ml, generous gift from Amgen, Seattle, Wash.). Every 5 days of culture, half of the medium was replaced by fresh cytokine-supplemented culture medium according to a protocol previously described^30.
(§2) Cell sorting. HSC, FC, and p-preDC were sorted as previously described^9,30,49. HSC were sorted for Sca-1^+c-Kit^+Lin^− expression, FC were sorted for CD8α^+/TCRαβ^−/TCRγδ^− expression, and p-preDC were sorted for CD11c^dim/CD11b^−/B220^+ expression. Briefly, BMC were incubated with Abs on ice for 30 minutes, cells were washed twice in the CSM, filtered, and resuspended to a final concentration of 2.5×10^6 cells/mL in the CSM for cell sorting. The isolation of the cell populations was performed on FACSVantage Flow Cytometers (Becton Dickinson). The populations of interest were isolated from the live lymphoid gate, and after reanalysis, only cells with a purity of >94% were used.

FC population in PB = assay: Flt3-ligand treatment of mice, subtypes in the mobilized FC population in PB; assay type: in vivo, B10.BR mice
Description: Flt3-ligand treatment of mice. Recombinant human Flt-3 Ligand (FL, kindly provided by Amgen, Seattle, Wash.) was diluted in sterile, filtered, endotoxin-free water at a concentration of 100 μg/ml. Donor B10.BR mice were subcutaneously injected with 10 μg of FL daily for 10 days. B10.BR control mice were injected with saline only. At the end of the treatment, peripheral blood was harvested and collected into heparinized tubes.
Phenotypic analysis of sorted FC. Sorted FC isolated from fresh BMC or FL-mobilized peripheral blood, with a purity ranging from 94 to 98%, were incubated with Fc receptor block (anti-CD16/CD32) before staining with different lineage specific markers, including anti-CD4, CD11c, B220, NK1.1, DX5, CD14, Gr1, and CD19. During reanalysis of sorted FC, less than 1% of contaminating T cells (TCRαβ FITC and TCRγδFITC) were detected, which therefore allowed the use of FITC-conjugated specific markers for further analysis. To validate the specificity of staining, various conjugates of the same antibody were used, including CD11c, CD4 and CD19 conjugated to FITC and APC, as well as B220 conjugated with PerCP, APC, or FITC (not shown). To analyze the subtypes of DC in the sorted FC population, sorted FC were blocked and stained with CD11b FITC, CD11c APC and B220 PerCP mAbs to determine the presence of myeloid pre-DC (CD11c^+/B220^−/CD11b^+), p-preDC (CD11c^dim/B220^+/CD11b^−), the common precursor population for DC (CD11c^+/B220^+/CD11b^+) or mature lymphoid DC (CD8α^+/CD11c^+/CD11b^−/B220^−). The cells were washed twice in CSM, and analyzed on a FACS Calibur using Cell Quest Software (Becton Dickinson, Mountainview, Calif.).

[1] = test system: B220^+/CD11c^dim/CD11b^− p-preDC; assay: Cell death of sorted p-preDC after overnight culture (7AAD staining); assay type: cell-based, mice; settings: versus fresh cells (data not shown)
Description: (§3) mAbs and Flow cytometry. The following mAbs (all from BD Biosciences Pharmingen, San Diego, Calif., except those labeled with APC-cy-7 from eBioscience, San Diego, Calif.) were used. To sort CD8^+/TCR^− FC: anti-CD8α (53-6.7) PE-labeled, anti-TCR β chain (H57-597) and anti-TCR γδ chain (GL3) FITC-labeled. To sort B220^+/CD11c^dim/CD11b^− p-preDC: anti-CD11b (M1/70) APC-labeled, anti-CD45R/B220 (RA3-6B2) APC-Cy7-labeled, anti-CD11c (HL3) PE-labeled, and anti-TCR β chain (H57-597), anti-TCR γδ chain (GL3), anti-CD14 (rmC5-3), anti-CD19 (1D3), anti-Pan-NK cells (DX5), and anti-NK1.1 (PK136), all FITC-labeled. To sort HSC: anti-TCR β chain (H57-597), anti-TCR γδ chain (GL3), anti-Ly-6G (Gr-1), anti-CD11b, Mac1 (M1/70), anti-CD8α (53-6.7) and anti-CD45R/B220 (RA3-6B2), all FITC-labeled, anti-Ly-6A/E (Sca-1) (E13-161.7) PE-labeled and anti-c-Kit (CD117) (2B8) APC-labeled. To restain the sorted FC population: purified anti-CD16/CD32 (FcγIII/II receptors) (2.4G2), anti-CD11c (HL3), anti-CD4 (RM4-5) and anti-CD19 (1D3) all APC-labeled, anti-CD45R/B220 (RA3-6B2) PerCP-labeled, and anti-Pan-NK cells (DX5), anti-NK1.1 (PK136), anti-CD14 (rmC5-3), and anti-Ly-6G (Gr-1) FITC-labeled. To analyze the activation state: anti-CD80 (B7-1) ([…]), anti-CD86 (B7-2) ([…]), and anti-I-A^b (Aβ^b) (AF6-120.1) FITC-labeled. For PBL typing and multilineage chimerism: anti-H-2 K^b (AF6-88.5) PE or FITC-labeled, anti-H-2K^k (36-7-5) PE or FITC-labeled, anti-TCR β chain (H57-597), anti-NK1.1 (PK136), anti-Ly-6G (Gr-1), anti-CD11b, Mac1 (M1/70) and anti-CD45R/B220 (RA3-6B2) all FITC-labeled. Detection of dead cells after cell culture was determined by using a 7-Amino-actinomycin D (7-AAD) (Molecular Probes, Eugene, Oreg.) followed by FACS analysis.
CpG oligodeoxynucleotides (ODN) stimulation. […]

[2] = test system: B220^+/CD11c^dim/CD11b^− p-preDC; assay: Activation marker expression on sorted p-preDC after 18 h culture (FACS); assay type: cell-based, mice; settings: p-preDC from 10 day FL-cultured BMC versus fresh p-preDC
Description: as §3
(§4) CpG oligodeoxynucleotides (ODN) stimulation. Sorted p-preDC or FC were cultured for 18 hours at 10^5 cells/200 μL in 96 well round-bottom culture plates in culture medium in the presence or absence of Toll-like receptor (TLR)-9 ligand, CPG-ODN 1668 (TCCATGACGTTCCGATGCT) (SEQ ID NO. 1) (GibcoBRL Custom Primers) at 1 μM, TLR-4 ligand, LPS from Escherichia coli (Sigma, MO, USA) at 10 μg/ml, as previously described^30. CpG or LPS-treated or untreated cells were subsequently assayed for: 1) the expression of DC activation/maturation cell surface markers by FACS, 2) their survival rate by 7AAD staining, or 3) morphological appearance by Wright Giemsa staining on cytospins. The supernatant of these cultures were collected for analysis of the production of different cytokines by ELISA.

CD8^+/TCR^− FC [3] = assay: Cell death of sorted FC after overnight culture (7AAD staining); assay type: cell-based, mice; settings: FC from 10 day FL-cultured BM, medium, n=3; versus 53.6% fresh cells
Description: as §3, §4

CD8^+/TCR^− FC [4] = assay: CpG ODN / LPS stimulation of sorted FC, cytokine production by ELISA / multiplex; assay type: cell-based, mice; settings: FC from 10 day FL-cultured BM, overnight culture, medium
Description: as §4
Cytokine production by ELISA. Briefly, the cell-free supernatants of 12H, 18H, or 24H cultured cells (FC or p-preDC,) with or without CpG ODN or LPS were collected and kept frozen at −80° C. The amount of cytokine produced was determined by 1) ELISA kits for mouse IFN-α (R&D system) and mouse TNF-α (Biosource International), and 2). Multiplex for MIP 1αCCL3), GM-CSF, MCP-1 (CCL2), RANTES (CCL5), IFN-γ, IL-1β, IL-2, IL-4, IL-5, IL-6, IL-10, IL-12p70, IL-9, and IL13 on 18 hour incubation supernatants from three different experiments performed by Linco Diagnostic Services (St. Charles, Mo.).

FL-derived p-preDC = assay: Cytokine production by sorted FL-derived p-preDC (ELISA); assay type: cell-based, mice; settings: p-preDC from FL bone marrow culture, overnight culture
Description: as §1
as §4, with “The supernatant of these cultures were collected for analysis of the production of different cytokines by ELISA.” left out
Cytokine production by ELISA. […] The amount of cytokine produced was determined by 1) ELISA kits for mouse IFN-α (R&D system) and mouse TNF-α (Biosource International), and 2). […]

CD8^+/TCR^− FC [5] = assay: Activation marker expression on sorted FC after 18 h culture (FACS); assay type: cell-based, mice; settings: FC from 10 day FL-cultured BMC, overnight culture, medium
Description: as §3, §4

FC from cultured BM = assay: Culture of BMC with FL for 10 days, expansion of FC; assay type: cell-based, mice; settings: 10 days in culture with FL, n=8
Description: as §1, §2

[6] = mice treated with FL for 10 days (data not shown)
[7] = mice treated with FL for 10 days, sorted FC from PB

B1: FL: Recombinant human Flt-3 Ligand (FL, kindly provided by Amgen, Seattle, Wash.) (protein, UniProt P49771 27-235, looked up)
Fms-related tyrosine kinase 3 …: TQDCSFQHSPISSDFAVKIRELSDYLLQDYPVTVASNLQDEELCGGLWRLVLAQRWMERLKTVAGSKMQGLLERVNTEIHFVTKCAFQPPPSCLRFVQTNISRLLQETSEQLVALKPWITRQNFSRCLELQCQPDSSTLPPPWSPRPLEATAPTAPQPPLLLLLLLPVGLLLLAAAWCLHWQRTRRRTPRPGEQVPPVPSPQDLLLVEH
In the case of B1, the “increase in FL-p-preDC from cultured BM” value (p-preDC from cultured BM) is reported as 17 fold, the “expansion of FC in PB” value (FC population in PB; FL-treatment of mice) is reported as “significantly expands” and the “FL-FC in the PB expressing CD14” value (FC population in PB; [6]) is reported as “none”. The “FL-FC in the PB expressing CD19” value (FC population in PB; [6]) was “none”, the “CD11c^bright population (mature DC) in FL-FC” value (FC population in PB; [7]) was 20% and the “CD11c^dim population (p-preDC phenotype) in FL-FC” value (FC population in PB; [7]) was 60% and 60-65%. For the same molecule, the “FL-FC in the PB expressing CD11c” value (FC population in PB; [7]) was 85-90%, the “FL-FC in the PB expressing NK1.1” value (FC population in PB; [7]) was 5-7% and the “death of FL-derived p-preDC after overnight culture” value [1] was “more sensitive to death”. The “CD80 level on FL-derived p-preDC” value [2] was “upregulated”, the “CD86 level on FL-derived p-preDC” value [2] was “upregulated” and the “Class II level on FL-derived p-preDC” value [2] was “upregulated”. For the same molecule, the “death of FL-derived FC after overnight culture” value (CD8^+/TCR^− FC [3]) was 71%, the “IFN-α production by FL-derived FC” value (CD8^+/TCR^− FC [4]) was “significant amounts of IFN-α” and the “IFN-α production by FL-derived p-preDC” value (FL-derived p-preDC) was “also produced IFN-α”. The “CD80 expression on FL-derived FC” value (CD8^+/TCR^− FC [5]; versus 11% of fresh FC) was 47%, the “CD86 expression on FL-derived FC” value (CD8^+/TCR^− FC [5]; versus 17% of fresh FC) was 51% and the “Class II expression on FL-derived FC” value (CD8^+/TCR^− FC [5]; versus 18% of fresh FC) was 40%. For the same molecule, the “increase in FL-derived FC from cultured BM” value (FC from cultured BM) was 7 fold.

Reference: patent publication US20070098693A1, “Methods for enhancing engraftment of purified hematopoietic stem cells in allogenic recipients” (priority 2003, published 2007)
